Measured values published in patent US20090208486A1.
Values belong to the molecule of their own block, whether it stands above or below them.

Biological target: T1, mouse CXCR3 (mouse) (UniProt O88410)
T1 sequence (looked up): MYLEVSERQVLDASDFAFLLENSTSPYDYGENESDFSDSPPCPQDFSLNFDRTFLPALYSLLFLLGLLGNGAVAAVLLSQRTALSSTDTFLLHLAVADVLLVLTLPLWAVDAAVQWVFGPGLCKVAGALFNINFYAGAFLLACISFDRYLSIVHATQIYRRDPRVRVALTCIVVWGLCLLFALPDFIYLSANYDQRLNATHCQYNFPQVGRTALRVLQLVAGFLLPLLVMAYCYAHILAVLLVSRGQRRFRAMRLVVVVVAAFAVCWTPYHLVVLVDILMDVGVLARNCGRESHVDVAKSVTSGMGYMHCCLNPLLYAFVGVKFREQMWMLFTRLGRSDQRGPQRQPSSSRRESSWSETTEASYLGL
Experiment: cell-based or functional assay

chemokine concentration at which chemotaxis/chemoinvasion responses of B16F10 cells were obtained: 50 to 100 ng/mL
Molecule: recombinant CXCL10 (Peprotech, Inc.) (ligand)

chemokine concentration at which chemotaxis/chemoinvasion responses of B16F10 cells were obtained: 50 to 100 ng/mL
diffusely-stained B16F10 cell population 5 min after CXCL9 (100 ng/ml), phalloidin staining: 22.8%
increase in intracellular Ca2+ concentration after CXCL9 (300 ng/ml) in CXCR3 antisense-transfectant B16F10 clones (CXCR3 protein reduced to about 20-25%): 5%
increase in intracellular Ca2+ concentration of B16F10 cells after CXCL9 (300 ng/ml), Fluo-3 AM: 15 to 20%
proportion of actin filament polarized B16F10 cells 5 min after CXCL9 (100 ng/ml), phalloidin staining: 38.4%
B1: recombinant CXCL9 (Peprotech, Inc.) (ligand, UniProt P18340 22-126, looked up, species assumed)
C-X-C motif chemokine 9: TLVIRNARCSCISTSRGTIHYKSLKDLKQFAPSPNCNKTEIIATLKNGDQTCLDPDSANVKKLMKEWEKKISQKKKQKRGKKHQKNMKNRKPKTPQSRRRSRKTT

chemokine concentration at which chemotaxis/chemoinvasion responses of B16F10 cells were obtained: 50 to 100 ng/mL
B2: recombinant CXCL11 (Peprotech, Inc.) (ligand, UniProt O14625 22-94, looked up, species assumed)
C-X-C motif chemokine 11: FPMFKRGRCLCIGPGVKAVKVADIEKASIMYPSNNCDKIEVIITLKENKGQRCLNPKSKQARLIIKKVERKNF
